Patent US12600782 (BIOTHEUS, dated 2026)
Substitutions are numbered along the chain they refer to.

T1: human PD-L2 on CHO cells (CHO-hPD-L2 cells) (human, UniProt Q9BQ51 20-273)
T1 construct: whole, on cells; also called CHO-K1-PD-L1/PD-L2
T1 sequence (looked up): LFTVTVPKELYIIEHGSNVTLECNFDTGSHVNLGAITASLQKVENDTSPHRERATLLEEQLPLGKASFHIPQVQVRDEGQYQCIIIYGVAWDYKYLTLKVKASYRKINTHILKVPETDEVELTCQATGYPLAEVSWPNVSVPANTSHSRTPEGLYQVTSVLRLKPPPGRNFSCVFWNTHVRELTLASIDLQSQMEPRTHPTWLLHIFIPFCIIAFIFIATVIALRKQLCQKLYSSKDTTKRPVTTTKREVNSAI

T2: human PD-L2 protein (purchased from AcroBiosystems) (human, UniProt Q9BQ51 20-219, limits assumed, biotinylated in the blocking assays)
T2 construct: Bought soluble protein; also called PD-L2 antigen; biotinylated human PD-L2 protein
T2 sequence (looked up): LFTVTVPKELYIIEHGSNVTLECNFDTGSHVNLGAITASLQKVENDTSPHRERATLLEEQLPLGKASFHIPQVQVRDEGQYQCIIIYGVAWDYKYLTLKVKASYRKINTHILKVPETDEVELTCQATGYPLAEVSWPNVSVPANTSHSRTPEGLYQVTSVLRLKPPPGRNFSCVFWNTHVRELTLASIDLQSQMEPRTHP

B1: HZ-D-Na-96-3 (antibody, V domains shown)
VH: EVQLVESGGGLVQPGGSLRLSCAASGRTFSSMTIGWFRQAPGKEREFVSGIGWTSGLTVYADSVKGRFTISRDNAKNSMYLQMNSLKPEDTAVYYCAADSMNRGQFDYWGQGTLVTVSS
notes: Humanized anti-PD-L2 heavy chain antibody: VHH linked to human IgG1 (LALA) Fc; the junction is not described
B2: D-Na-64 (antibody, V domains shown)
VH: EVQLVESGGGLVQPGGSLRLSCAASGRTFSSMTIGWFRQTPGKEREFVAGIGWSTSKTVYKDSVKGRFTISTDNAKKTVYLQMNNLKPEDTAVYYCAADSMNRGQFDYWGQGTQVTVSS
notes: Anti-PD-L2 heavy chain antibody: VHH linked to human IgG1 (LALA) Fc; the junction is not described
B3: D-Ye-10 (antibody, V domains shown)
VH: B2 VH with E1Q, V5Q, P14A, G16A, A24S, A98E
notes: as for B2
B4: D-Na-87 (antibody, V domains shown)
VH: QVQLVESGGGLVQPGGSLRLSCAASGFAFDAYAMTWVRQAPGKGLEFLSRIYSHGSKIIYAGSVKGRFTIFRDNAKNTVYLQMNSLKPEDTAVYYCAAGPDNIPTTGEKYDFWGQGTQVTVSS
notes: as for B2
B5: D-Ye-22 (antibody, V domains shown)
VH: QVQLQESGGGLVQAGDSLRLSCIGSRRTFTMAWFRQAPGKEREFVAGIWGPADHTIYANSVKGRFACSRDDSTNTIFLQMNSLELEDTALYLCAAADSSGDDFEYWGQGTQVTVSS
notes: as for B2
B6: D-Na-58 (antibody, V domains shown)
VH: QVQLVESGGGLVQAGGSLTLSCTASGRTFSSYAMAWFRQAPGKERELLVTISRSGSTTYYLDSVKGRFTISRDNAKNTVYLQMNSLKPEDTAVYYCAAKRSLQDEVYYWGQGTQVTVSS
notes: as for B2
B7: D-Na-89 (antibody, V domains shown)
VH: QVQLVESGGGLVQAGGSLRLSCAASGLTFINYAMGWFRQAPGKEREFVAAISWAGGTTSYADSVKDRFSITRDSAKDTVYLQTNSLKPEDTAVYYCAANSRILSRTAKDYDYWGQGTEVTVSS
notes: as for B2
B8: D-Ye-29 (antibody, V domains shown)
VH: QVQLQESGGGLVQPGGSLRLSCAASGSEFSFIPTGWYRQTPGKQRDLVAVFTSGGLTNYADSVKGRFTISRNNTKNIVYLQMNSLKPEDTAVYYCSGVPGPHYNGPTSGINYWGQGTQVTVSS
notes: as for B2
B9: HZ-D-Ye-29-3 (antibody, V domains shown)
VH: B8 VH with Q1E, Q5L, T40A, D46E, N72D, T74S, I77T, K86R, P87A
notes: as for B1
B10: HZ-D-Na-96-2 (antibody, V domains shown)
VH: B1 VH with E44G, R45L, M79L
notes: as for B1
B11: D-Ye-32 (antibody, V domains shown)
VH: QVQLQESGGGLVQAGGSLRLSCAASGSVGSINAMAWFRQAPGKQRDVVAHMPSGGSTHYADSVKGRFTVSRDNAKNTVYLQMNSLKAEDTAVYYCWAAGLGWGQGTQVTVSS
notes: as for B2
B12: D-Ye-31 (antibody, V domains shown)
VH: B2 VH with E1Q, V5Q, P14A, R19G
notes: as for B2
B13: D-Na-78 (antibody, V domains shown)
VH: QVQLVESGGGLVQAGGSLRLSCEASGVISINYAMAWFRQAPGKEREFVAAISRFGVTTSYADSVKDRFSIGITRDNAKDTMYLQTKSLKPEDTAVYYCAANSRILSRTAKDYDYWGQGTQVTVSS
notes: as for B2
B14: D-Na-80 (antibody, V domains shown)
VH: EVQLVESGGGLVQAGGSLRLSCAVSGVSFINYAMGWFRQAPGKEREFVAAISRFGGTTSYADSVKDRFSITTDTKDTVYLQTNSLKPEDTAVYYCAANSRILSRTAKDYDYWGQGTQVTVSS
notes: as for B2
B15: D-Na-67 (antibody, V domains shown)
VH: QVQLVESGGGLVQAGGSLRLSCAASGGLTFINYAMGWFRQAPGKEREFVAAISRFGGTTSYADSVKDRFSITRDVAKDTVYLQTNSLKPEDTAVYYCAANSRILSRTAADYDYWGQGTQVTVSS
notes: as for B2
B16: D-Na-90 (antibody, V domains shown)
VH: B7 VH with E118Q
notes: as for B2
B17: K-Yr-13&14-09 (antibody, V domains shown)
VH: QVQLVESGGGLVKAGDSLRLSCAASGRTFTIYAIGWFRQAPGKEREFVATINWSGSMTNYTDSVKGRFTISRDNAKNTVYLQMNSLKPDDTAIYYCAAYVGATISTAHSRYDYWGQGTLVTVSA
notes: Anti-PD-L1 heavy chain antibody: VHH linked to human IgG1 (LALA) Fc; the junction is not described
B18: K-Yr-13&14-16 (antibody, V domains shown)
VH: EVQLVESGGGLVQAGGSLRLSCAASTRTFITYAMGWFRQAPGKEREFVASINWSGASTYYADSVKGRFTISRHNAKNTVYLQMNSLKPEDTAVYYCAAALSAVVVTQILDYDYWGQGTLVTVSS
notes: as for B17

target: T1, human PD-L2 on CHO cells (CHO-hPD-L2 …); assay: flow cytometry on CHO-hPD-L2 cells, PE anti-human IgG-Fc, median fluorescence intensity (MFI)
Protocol: (§1) The expanded CHO-hPD-L2 cells were adjusted to a cell density of 2×10⁶ cells/ml, and were added to 96-well flow plate at 100 μl/well, and centrifuged for later use. […] The diluted samples were added to the 96-well flow plate with cells at 100 μl/well, incubated at 4° C. for 30 min, and washed twice with PBS. Goat F(ab')2 anti-human IgG-Fc (PE) (purchased from Abcam) diluted 100 times with PBS was added at 100 μl/well, incubated at 4° C. for 30 min, and washed twice with PBS. PBS was added at 100 μl/well to resuspend cells, and detection was performed on a CytoFlex (Bechman) flow cytometer and the corresponding MFI was calculated.

| EC50 (read off the curve) [nM] | Binder |
| --- | --- |
| ~3 | B1 |

target: T2, human PD-L2 protein (purchased from …); assay: flow cytometry blocking assay: antibody pre-incubated with biotinylated human PD-L2 protein (1 ug/ml), binding of PD-L2 to CHO-hPD-1 cells read as MFI
Protocol: (§2) CHO cells overexpressing human PD-1 (CHO-hPD-1 cells) were generated by transfection of the pCHO1.0 vector (purchased from Invitrogen™) cloning human PD-1 cDNA (purchased from Sino Biological). The expanded CHO-hPD-1 cells were adjusted to a cell density of 2×10⁶ cells/ml, and were added to 96-well flow plate at 100 μl/well, and centrifuged for later use. The purified mutant sample was diluted with PBS and diluted 3 times from […] for 12 points. […] The co-incubation sample was added to the above-mentioned 96-well flow plate with cells 100 μl/well, incubated at 4° C. for 30 min, and washed twice with PBS. APC goat anti-mouse IgG (minimum×reactive) antibody diluted 100 times with PBS (purchased from Biolegend®) was added at 100 μl/well, incubated at 4° C. for 30 min, and washed twice with PBS. PBS was added at 100 μl/well to resuspend cells, and detection was performed on a CytoFlex (Bechman) flow cytometer and the corresponding MFI was calculated.

| IC50 (read off the curve) [nM] | Binder |
| --- | --- |
| ~10 | B2 |
| ~4 | B3 |
| ~30 | B4 |
| ~2 | B5 |
| ~9 | B6 |
| ~30 | B7 |

target: T2, human PD-L2 protein (purchased from …); assay: BLI (ForteBio), antibody on AHQ sensor, 100 nM PD-L2 antigen, 1:1 model
Protocol: (§3) ForteBio affinity determination was carried out according to existing methods (Estep, P et al., High throughput solution-based measurement of antibody-antigen affinity and epitope binning. MAbs, 2013.5(2): p. 270-8). In short, the sensor was equilibrated for 30 min under the line of the analysis buffer, and then the baseline was established after online detection for 60 s. The purified antibody obtained as described above was loaded onto the AhQ sensor online. […] Kinetic analysis was performed using a 1:1 binding model.
The experimental method was the same as that in Example 1.5.

| Kd [nM] | koff [s⁻¹] | kon [M⁻¹ s⁻¹] | Binder |
| --- | --- | --- | --- |
| 1.93 | 0.000376 | 195000 | B8 |
| 4.49 | 0.00173 | 386000 | B9 |
| 1.99 | 0.00059 | 297000 | B1 |
| 1.58 | 0.000512 | 323000 | B10 |

target: T2, human PD-L2 protein (purchased from …); assay: as above; remark: another data set of the same source
Protocol: as §3

| Kd [nM] | koff [s⁻¹] | kon [M⁻¹ s⁻¹] | Binder |
| --- | --- | --- | --- |
| 5.69 | 0.00146 | 256000 | B11 |
| 5.04 | 0.000644 | 128000 | B12 |
| 0.566 | 0.000369 | 652000 | B2 |
| 5.22 | 0.00106 | 203000 | B3 |
| 0.655 | 0.000288 | 440000 | B4 |
| 4.51 | 0.000825 | 183000 | B5 |
| 5.95 | 0.000345 | 58100 | B13 |
| 3.4 | 0.000433 | 127000 | B14 |
| 1.93 | 0.000376 | 195000 | B8 |
| 0.486 | 0.000325 | 668000 | B6 |
| 3.58 | 0.000334 | 93300 | B15 |
| 3.31 | 0.00112 | 339000 | B7 |
| 3.79 | 0.00176 | 463000 | B16 |

target: T2, human PD-L2 protein (purchased from …); assay: flow cytometry blocking assay: antibody pre-incubated with biotinylated human PD-L2 protein (1 ug/ml), binding of PD-L2 to CHO-hPD-1 cells read as MFI (APC)
Protocol: as §2

| IC50 (read off the curve) [nM] | Binder |
| --- | --- |
| ~2 | B1 |
| ~2 | B10 |

target: T1, human PD-L2 on CHO cells (CHO-hPD-L2 …); assay: flow cytometry on CHO-hPD-L2 cells, PE anti-human IgG-Fc, median fluorescence intensity (MFI); remark: another data set of the same source
Protocol: as §1

| EC50 (read off the curve) [nM] | Binder |
| --- | --- |
| ~70 | B11 |
| ~60 | B2 |
| ~50 | B3 |
| ~20 | B5 |
| ~50 | B6 |

target: T3, human PD-L1 protein (purchased from AcroBiosystems) (human, UniProt Q9NZQ7 19-238, biotinylated in the blocking assay); assay: BLI (ForteBio), antibody on AHQ sensor, 100 nM PD-L1 antigen, 1:1 model
T3 construct: Bought soluble protein; also called PD-L1 antigen; biotinylated human PD-L1 protein
T3 sequence (Q9NZQ7 19-238 limits assumed): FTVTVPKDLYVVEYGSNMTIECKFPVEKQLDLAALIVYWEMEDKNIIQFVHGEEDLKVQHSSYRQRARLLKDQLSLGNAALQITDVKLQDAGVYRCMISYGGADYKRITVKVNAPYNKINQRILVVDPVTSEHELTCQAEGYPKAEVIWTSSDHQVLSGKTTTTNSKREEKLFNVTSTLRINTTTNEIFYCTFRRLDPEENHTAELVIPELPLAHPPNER
Protocol: as §3

| Kd [nM] | koff [s⁻¹] | kon [M⁻¹ s⁻¹] | Binder |
| --- | --- | --- | --- |
| 2.56 | 0.00137 | 535000 | B17 |
| 11 | 0.00606 | 553000 | B18 |
